Several values for one entry are separate records, joined by “and”; a condition that tells them apart may be missing. Equal values may be shown once.
What was measured:
Test in all cases: purified protein, by the assay type;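 note: recombinant polyamine oxidases incubated with substrate, product amines (putrescine, 1,3-diaminopropane or butane-1,3-diamine) quantified by HPLC after post-column o-phthalaldehyde derivatization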
[1] = substrate: CC(=O)NC(C)CCNCCCCN; details: other: Supplementary Table 1, pH 9.0, 100 mM Glycine-NaOH, 25°C, Put formation
Procedure: (§1) HPLC with post-column o-phthalaldehyde-derivatization was used to determine the concentrations of the reaction products Put and 1,3-diaminopropane (DAP) or butane-1,3-diamine respectively as described in [30]. Fms1 activity was determined essentially as described for human recombinant APAO, but reactions were carried out in 100 mM Glycine-NaOH buffer at pH 9.0 in a water bath at +25°C [29, 30].
(§2) The reactions were carried out in 1 triplicate at pH 9.0 in 100 mM Glycine-NaOH at +25°C.
(§3) values for N -Ac-MeSpd enantiomers were determined by using substrate concentrations of 25, 50,
(§4) for Rac-MeSpd 30 min, (R)-MeSpd 20 min and (S)-MeSpd 40 minutes.
(§5) The reactions were carried out in triplicate at pH 9.0 in 100 mM Glycine-NaOH at +25°C.
(§6) values for MeSpd enantiomers were determined by using substrate concentrations of 100, 300, 600,
(§7) 1000, 2000 and 4000 M. Recombinant Fms1 was 3.8 g/reaction and the incubation time 60
(§8) incubated for 30 min (half of the reaction time of an ordinary sample). E1 cleavage was monitored
(§9) by HPLC by measuring Put formation and E2 cleavage by determining butane-1,3-diamine content.

[2] = substrate: CC(N)CCNCCCCN; details: other: Supplementary Table 2, pH 9.0, 25°C
Procedure: as §1, §2, §3, §4, §5, §6, §7, §8, §9

[3] = substrate: CC(=O)N[C@H](C)CCNCCCCN; details: other: Supplementary Table 1, pH 9.0, 100 mM Glycine-NaOH, 25°C, Put formation
Procedure: as §1, §2, §3, §4, §5, §6, §7, §8, §9

[4] = substrate: CC(=O)N[C@@H](C)CCNCCCCN; details: other: Supplementary Table 1, pH 9.0, 100 mM Glycine-NaOH, 25°C, Put formation
Procedure: as §1, §2, §3, §4, §5, §6, §7, §8, §9

[5] = substrate: CC(=O)NCCCCNCCCN; details: other: substrate alone, no aldehyde, pH 9.0, 25°C
Procedure: as §1, §2, §3, §4, §5, §6, §7, §8, §9

[6] = substrate: CC(=O)NCCCNCCCCN; details: other: substrate alone, no aldehyde, pH 9.0, 25°C
Procedure: as §1, §2, §3, §4, §5, §6, §7, §8, §9

[7] = substrate: NCCCCNCCCN; details: other: substrate alone, no aldehyde, pH 9.0, 25°C
Procedure: as §1, §2, §3, §4, §5, §6, §7, §8, §9

B1: Fms1 (Saccharomyces cerevisiae S288C) (protein)
chain: MNTVSPAKKKVIIIGAGIAGLKAASTLHQNGIQDCLVLEARDRVGGRLQTVTGYQGRKYDIGASWHHDTLTNPLFLEEAQLSLNDGRTRFVFDDDNFIYIDEERGRVDHDKELLLEIVDNEMSKFAELEFHQHLGVSDCSFFQLVMKYLLQRRQFLTNDQIRYLPQLCRYLELWHGLDWKLLSAKDTYFGHQGRNAFALNYDSVVQRIAQSFPQNWLKLSCEVKSITREPSKNVTVNCEDGTVYNADYVIITVPQSVLNLSVQPEKNLRGRIEFQPPLKPVIQDAFDKIHFGALGKVIFEFEECCWSNESSKIVTLANSTNEFVEIVRNAENLDELDSMLEREDSQKHTSVTCWSQPLFFVNLSKSTGVASFMMLMQAPLTNHIESIREDKERLFSFFQPVLNKIMKCLDSEDVIDGMRPIENIANANKPVLRNIIVSNWTRDPYSRGAYSACFPGDDPVDMVVAMSNGQDSRIRFAGEHTIMDGAGCAYGAWESGRREATRISDLLK
**Q.** For B1, which Km [1] is on record?
**A.** The Km was 140 ± 23 µM.

**Q.** And the Km ([2]; Put formation)?
**A.** Its Km is 502 µM and 555 µM.

**Q.** What about the kcat ([2]; Put formation) of the same protein?
**A.** Its kcat is 0.014 ± 0 s⁻¹ and 0.011 ± 0 s⁻¹.

**Q.** And the kcat/Km ([2]; Put formation)?
**A.** Its kcat/Km is 28 M⁻¹ s⁻¹ and 20 M⁻¹ s⁻¹.

**Q.** And the Km ([2]; butane-1,3-diamine formation)?
**A.** The Km was 467 µM and 606 µM.

**Q.** And the kcat ([2]; butane-1,3-diamine formation)?
**A.** The kcat was 0.006 ± 0 s⁻¹ and 0.013 ± 0 s⁻¹.

**Q.** And the kcat/Km ([2]; butane-1,3-diamine formation)?
**A.** Its kcat/Km is 13 M⁻¹ s⁻¹ and 22 M⁻¹ s⁻¹.

**Q.** And the Km [3]?
**A.** The Km was 155 ± 29 µM.

**Q.** And the Km [4]?
**A.** Its Km is 109 ± 18 µM.

**Q.** What about the Km [5] of the same protein?
**A.** Its Km is 122 ± 18 µM.

**Q.** What about the kcat [5] of the same protein?
**A.** Its kcat is 1.4 ± 0.1 s⁻¹.

**Q.** And the kcat/Km [5]?
**A.** Its kcat/Km is “(12 ± 1.8) × 10^3 M^−1s^−1”.

**Q.** And the Km [6]?
**A.** Its Km is 42 ± 8 µM.

**Q.** And the kcat [6]?
**A.** Its kcat is 65 ± 2 s⁻¹.

**Q.** What about the kcat/Km [6] of the same protein?
**A.** Its kcat/Km is “(1600 ± 300) × 10^3 M^−1s^−1”.

**Q.** And the Km [7]?
**A.** Its Km is 534 ± 36 µM and 643 ± 52 µM.

Reference: article PMC6131205, “Controlling the regioselectivity and stereospecificity of FAD-dependent polyamine oxidases with the use of amine-attached guide molecules as conformational modulators” (Bioscience Reports, 2018)
